Results: paper PMC10241002 (Autophagy, 2022)

Molecular target: the molecule itself
Test: single-molecule fluorescence stoichiometry analysis

Protein | binding result | stoichiometry N
Atg9-GFP (purified, GFP-3xFLAG fusion) (natural protein, S. cerevisiae, UniProt Q12142 1-997, looked up) MERDEYQLPNSHGKNTFLSRIFGLQSDEVNPSLNSQEMSNFPLPDIERGSSLLHSTNDSREDVDENDLRVPESDQGTSTEEEDEVDEEQVQAYAPQISDGLDGDHQLNSVTSKENVLETEKSNLERLVEGSTDDSVPKVGQLSSEEEEDNEFINNDGFDDDTPLFQKSKIHEFSSKKSNTIEDGKRPLFFRHILQNNRPQRDTQKLFTSSNAIHHDKDKSANNGPRNINGNQKHGTKYFGSATQPRFTGSPLNNTNRFTKLFPLRKPNLLSNISVLNNTPEDRINTLSVKERALWKWANVENLDIFLQDVYNYYLGNGFYCIILEKILNICTLLFVVFVSTYMGHCVDYSKLPTSHRVSDIIIDKCYSNSITGFTKFFLWMFYFFVILKIVQLYFDVQKLSELQNFYKYLLNISDDELQTLPWQNVIQQLMYLKDQNAMTANVVEVKAKNRIDAHDVANRIMRRENYLIALYNSDILNLSLPIPLFRTNVLTKTLEWNINLCVMGFVFNESGFIKQSILKPSQREFTREELQKRFMLAGFLNIILAPFLVTYFVLLYFFRYFNEYKTSPGSIGARQYTPIAEWKFREYNELYHIFKKRISLSTTLANKYVDQFPKEKTNLFLKFVSFICGSFVAILAFLTVFDPENFLNFEITSDRSVIFYITILGAIWSVSRNTITQEYHVFDPEETLKELYEYTHYLPKEWEGRYHKEEIKLEFCKLYNLRIVILLRELTSLMITPFVLWFSLPSSAGRIVDFFRENSEYVDGLGYVCKYAMFNMKNIDGEDTHSMDEDSLTKKIAVNGSHTLNSKRRSKFTAEDHSDKDLANNKMLQSYVYFMDDYSNSENLTGKYQLPAKKGYPNNEGDSFLNNKYSWRKQFQPGQKPELFRIGKHALGPGHNISPAIYSTRNPGKNWDNNNNGDDIKNGTNNATAKNDDNNGNNDHEYVLTESFLDSGAFPNHDVIDHNKMLNSNYNGNGILNKGGVLGLVKEYYKKSDVGR | binds | 
Atg9^F627A-GFP (purified, GFP-3xFLAG fusion) (natural protein, S. cerevisiae, UniProt Q12142 1-997, looked up) MERDEYQLPNSHGKNTFLSRIFGLQSDEVNPSLNSQEMSNFPLPDIERGSSLLHSTNDSREDVDENDLRVPESDQGTSTEEEDEVDEEQVQAYAPQISDGLDGDHQLNSVTSKENVLETEKSNLERLVEGSTDDSVPKVGQLSSEEEEDNEFINNDGFDDDTPLFQKSKIHEFSSKKSNTIEDGKRPLFFRHILQNNRPQRDTQKLFTSSNAIHHDKDKSANNGPRNINGNQKHGTKYFGSATQPRFTGSPLNNTNRFTKLFPLRKPNLLSNISVLNNTPEDRINTLSVKERALWKWANVENLDIFLQDVYNYYLGNGFYCIILEKILNICTLLFVVFVSTYMGHCVDYSKLPTSHRVSDIIIDKCYSNSITGFTKFFLWMFYFFVILKIVQLYFDVQKLSELQNFYKYLLNISDDELQTLPWQNVIQQLMYLKDQNAMTANVVEVKAKNRIDAHDVANRIMRRENYLIALYNSDILNLSLPIPLFRTNVLTKTLEWNINLCVMGFVFNESGFIKQSILKPSQREFTREELQKRFMLAGFLNIILAPFLVTYFVLLYFFRYFNEYKTSPGSIGARQYTPIAEWKFREYNELYHIFKKRISLSTTLANKYVDQFPKEKTNLFLKFVSAICGSFVAILAFLTVFDPENFLNFEITSDRSVIFYITILGAIWSVSRNTITQEYHVFDPEETLKELYEYTHYLPKEWEGRYHKEEIKLEFCKLYNLRIVILLRELTSLMITPFVLWFSLPSSAGRIVDFFRENSEYVDGLGYVCKYAMFNMKNIDGEDTHSMDEDSLTKKIAVNGSHTLNSKRRSKFTAEDHSDKDLANNKMLQSYVYFMDDYSNSENLTGKYQLPAKKGYPNNEGDSFLNNKYSWRKQFQPGQKPELFRIGKHALGPGHNISPAIYSTRNPGKNWDNNNNGDDIKNGTNNATAKNDDNNGNNDHEYVLTESFLDSGAFPNHDVIDHNKMLNSNYNGNGILNKGGVLGLVKEYYKKSDVGR |  | 3
